To fix the notation:
B1: LRRC40 (protein, UniProt Q9H9A6 1-602, looked up)
Leucine-rich …: MSRLKRIAGQDLRAGFKAGGRDCGTSVPQGLLKAARKSGQLNLSGRNLSEVPQCVWRINVDIPEEANQNLSFGATERWWEQTDLTKLIISNNKLQSLTDDLRLLPALTVLDIHDNQLTSLPSAIRELENLQKLNVSHNKLKILPEEITNLRNLKCLYLQHNELTCISEGFEQLSNLEDLDLSNNHLTTVPASFSSLSSLVRLNLSSNELKSLPAEINRMKRLKHLDCNSNLLETIPPELAGMESLELLYLRRNKLRFLPEFPSCSLLKELHVGENQIEMLEAEHLKHLNSILVLDLRDNKLKSVPDEIILLRSLERLDLSNNDISSLPYSLGNLHLKFLALEGNPLRTIRREIISKGTQEVLKYLRSKIKDDGPSQSESATETAMTLPSESRVNIHAIITLKILDYSDKQATLIPDEVFDAVKSNIVTSINFSKNQLCEIPKRMVELKEMVSDVDLSFNKLSFISLELCVLQKLTFLDLRNNFLNSLPEEMESLVRLQTINLSFNRFKMLPEVLYRIFTLETILISNNQVGSVDPQKMKMMENLTTLDLQNNDLLQIPPELGNCVNLRTLLLDGNPFRVPRAAILMKGTAAILEYLRDRIPT
B2: NOP2 (protein, UniProt P46087 1-812, looked up)
28S rRNA …: MGRKLDPTKEKRGPGRKARKQKGAETELVRFLPAVSDENSKRLSSRARKRAAKRRLGSVEAPKTNKSPEAKPLPGKLPKGISAGAVQTAGKKGPQSLFNAPRGKKRPAPGSDEEEEEEDSEEDGMVNHGDLWGSEDDADTVDDYGADSNSEDEEEGEALLPIERAARKQKAREAAAGIQWSEEETEDEEEEKEVTPESGPPKVEEADGGLQINVDEEPFVLPPAGEMEQDAQAPDLQRVHKRIQDIVGILRDFGAQREEGRSRSEYLNRLKKDLAIYYSYGDFLLGKLMDLFPLSELVEFLEANEVPRPVTLRTNTLKTRRRDLAQALINRGVNLDPLGKWSKTGLVVYDSSVPIGATPEYLAGHYMLQGASSMLPVMALAPQEHERILDMCCAPGGKTSYMAQLMKNTGVILANDANAERLKSVVGNLHRLGVTNTIISHYDGRQFPKVVGGFDRVLLDAPCSGTGVISKDPAVKTNKDEKDILRCAHLQKELLLSAIDSVNATSKTGGYLVYCTCSITVEENEWVVDYALKKRNVRLVPTGLDFGQEGFTRFRERRFHPSLRSTRRFYPHTHNMDGFFIAKFKKFSNSIPQSQTGNSETATPTNVDLPQVIPKSENSSQPAKKAKGAAKTKQQLQKQQHPKKASFQKLNGISKGADSELSTVPSVTKTQASSSFQDSSQPAGKAEGIREPKVTGKLKQRSPKLQSSKKVAFLRQNAPPKGTDTQTPAVLSPSKTQATLKPKDHHQPLGRAKGVEKQQLPEQPFEKAAFQKQNDTPKGPQPPTVSPIRSSRPPPAKRKKSQSRGNSQLLLS
B3: PRPF31 (protein, UniProt Q8WWY3 1-499, looked up)
U4/U6 small nuclear …: MSLADELLADLEEAAEEEEGGSYGEEEEEPAIEDVQEETQLDLSGDSVKTIAKLWDSKMFAEIMMKIEEYISKQAKASEVMGPVEAAPEYRVIVDANNLTVEIENELNIIHKFIRDKYSKRFPELESLVPNALDYIRTVKELGNSLDKCKNNENLQQILTNATIMVVSVTASTTQGQQLSEEELERLEEACDMALELNASKHRIYEYVESRMSFIAPNLSIIIGASTAAKIMGVAGGLTNLSKMPACNIMLLGAQRKTLSGFSSTSVLPHTGYIYHSDIVQSLPPDLRRKAARLVAAKCTLAARVDSFHESTEGKVGYELKDEIERKFDKWQEPPPVKQVKPLPAPLDGQRKKRGGRRYRKMKERLGLTEIRKQANRMSFGEIEEDAYQEDLGFSLGHLGKSGSGRVRQTQVNEATKARISKTLQRTLQKQSVVYGGKSTIRDRSSGTASSVAFTPLQGLEIVNPQAAEKKVAEANQKYFSSMAEFLKVKGEKSGLMST
B4: PRPF3 (protein, UniProt O43395 1-683, looked up)
U4/U6 small nuclear …: MALSKRELDELKPWIEKTVKRVLGFSEPTVVTAALNCVGKGMDKKKAADHLKPFLDDSTLRFVDKLFEAVEEGRSSRHSKSSSDRSRKRELKEVFGDDSEISKESSGVKKRRIPRFEEVEEEPEVIPGPPSESPGMLTKLQIKQMMEAATRQIEERKKQLSFISPPTPQPKTPSSSQPERLPIGNTIQPSQAATFMNDAIEKARKAAELQARIQAQLALKPGLIGNANMVGLANLHAMGIAPPKVELKDQTKPTPLILDEQGRTVDATGKEIELTHRMPTLKANIRAVKREQFKQQLKEKPSEDMESNTFFDPRVSIAPSQRQRRTFKFHDKGKFEKIAQRLRTKAQLEKLQAEISQAARKTGIHTSTRLALIAPKKELKEGDIPEIEWWDSYIIPNGFDLTEENPKREDYFGITNLVEHPAQLNPPVDNDTPVTLGVYLTKKEQKKLRRQTRREAQKELQEKVRLGLMPPPEPKVRISNLMRVLGTEAVQDPTKVEAHVRAQMAKRQKAHEEANAARKLTAEQRKVKKIKKLKEDISQGVHISVYRVRNLSNPAKKFKIEANAGQLYLTGVVVLHKDVNVVVVEGGPKAQKKFKRLMLHRIKWDEQTSNTKGDDDEESDEEAVKKTNKCVLVWEGTAKDRSFGEMKFKQCPTENMAREHFKKHGAEHYWDLALSESVLESTD
B5: VAC14 (protein, UniProt Q08AM6 1-782, looked up)
Protein VAC14 homolog: MNPEKDFAPLTPNIVRALNDKLYEKRKVAALEIEKLVREFVAQNNTVQIKHVIQTLSQEFALSQHPHSRKGGLIGLAACSIALGKDSGLYLKELIEPVLTCFNDADSRLRYYACEALYNIVKVARGAVLPHFNVLFDGLSKLAADPDPNVKSGSELLDRLLKDIVTESNKFDLVSFIPLLRERIYSNNQYARQFIISWILVLESVPDINLLDYLPEILDGLFQILGDNGKEIRKMCEVVLGEFLKEIKKNPSSVKFAEMANILVIHCQTTDDLIQLTAMCWMREFIQLAGRVMLPYSSGILTAVLPCLAYDDRKKSIKEVANVCNQSLMKLVTPEDDELDELRPGQRQAEPTPDDALPKQEGTASGGPDGSCDSSFSSGISVFTAASTERAPVTLHLDGIVQVLNCHLSDTAIGMMTRIAVLKWLYHLYIKTPRKMFRHTDSLFPILLQTLSDESDEVILKDLEVLAEIASSPAGQTDDPGPLDGPDLQASHSELQVPTPGRAGLLNTSGTKGLECSPSTPTMNSYFYKFMINLLKRFSSERKLLEVRGPFIIRQLCLLLNAENIFHSMADILLREEDLKFASTMVHALNTILLTSTELFQLRNQLKDLKTLESQNLFCCLYRSWCHNPVTTVSLCFLTQNYRHAYDLIQKFGDLEVTVDFLAEVDKLVQLIECPIFTYLRLQLLDVKNNPYLIKALYGLLMLLPQSSAFQLLSHRLQCVPNPELLQTEDSLKAAPKSQKADSPSIDYAELLQHFEKVQNKHLEVRHQRSGRGDHLDRRVVL
B6: SARM1 (protein, UniProt Q6SZW1 28-724, looked up)
NAD(+) hydrolase SARM1: LAVPGPDGGGGTGPWWAAGGRGPREVSPGAGTEVQDALERALPELQQALSALKQAGGARAVGAGLAEVFQLVEEAWLLPAVGREVAQGLCDAIRLDGGLDLLLRLLQAPELETRVQAARLLEQILVAENRDRVARIGLGVILNLAKEREPVELARSVAGILEHMFKHSEETCQRLVAAGGLDAVLYWCRRTDPALLRHCALALGNCALHGGQAVQRRMVEKRAAEWLFPLAFSKEDELLRLHACLAVAVLATNKEVEREVERSGTLALVEPLVASLDPGRFARCLVDASDTSQGRGPDDLQRLVPLLDSNRLEAQCIGAFYLCAEAAIKSLQGKTKVFSDIGAIQSLKRLVSYSTNGTKSALAKRALRLLGEEVPRPILPSVPSWKEAEVQTWLQQIGFSKYCESFREQQVDGDLLLRLTEEELQTDLGMKSGITRKRFFRELTELKTFANYSTCDRSNLADWLGSLDPRFRQYTYGLVSCGLDRSLLHRVSEQQLLEDCGIHLGVHRARILTAAREMLHSPLPCTGGKPSGDTPDVFISYRRNSGSQLASLLKVHLQLHGFSVFIDVEKLEAGKFEDKLIQSVMGARNFVLVLSPGALDKCMQDHDCKDWVHKEIVTALSCGKNIVPIIDGFEWPEPQVLPEDMQAVLTFNGIKWSHEYQEATIEKIIRFLQGRSSRDSSAGSDTSLEGAAPMGPT
B7: NOB1 (protein, UniProt Q9ULX3 2-412, looked up)
RNA-binding protein NOB1: APVEHVVADAGAFLRHAALQDIGKNIYTIREVVTEIRDKATRRRLAVLPYELRFKEPLPEYVRLVTEFSKKTGDYPSLSATDIQVLALTYQLEAEFVGVSHLKQEPQKVKVSSSIQHPETPLHISGFHLPYKPKPPQETEKGHSACEPENLEFSSFMFWRNPLPNIDHELQELLIDRGEDVPSEEEEEEENGFEDRKDDSDDDGGGWITPSNIKQIQQELEQCDVPEDVRVGCLTTDFAMQNVLLQMGLHVLAVNGMLIREARSYILRCHGCFKTTSDMSRVFCSHCGNKTLKKVSVTVSDDGTLHMHFSRNPKVLNPRGLRYSLPTPKGGKYAINPHLTEDQRFPQLRLSQKARQKTNVFAPDYIAGVSPFVENDISSRSATLQVRDSTLGAGRRRLNPNASRKKFVKKR

In the first assay the test system is Hsp90 complexes in K562 cell extract. Kind of assay: Nano-LC-MS/MS of PU-beads pull-downs. It counts as binding. Conditions: protein identified in PU-beads pull-down of K562 cell extract, Prep 1; QSTAR-Elite QTof MS. The gist of the method: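 Lysates pre-cleared overnight at 4 °C with control beads, then pulled down with PU-beads or control beads; eluted proteins (2% SDS boil) gel-separated and analysed by nano LC-MS/MS on a QTof. Mascot identification (p<0.05), spectral counts and sequence coverage evaluated in Scaffold.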
For B1, the “Number of Assigned Spectra, K562 Prep 1” value is reported as 4.
Same read-out and setting: to B2 belongs 0; to B3, 3.
Same read-out and setting: the result for B4 reads 3.
On the same count and under the same terms, to B5 belongs 5; to B6, 0; to B7, 5.

The same assay, now with this note: protein identified in PU-beads pull-down of K562 cell extract, Prep 2; QSTAR-Elite QTof MS.
With B1, the “Number of Assigned Spectra, K562 Prep 2” value was found to be 3.
Still for that read-out and setting: the result for B2 reads 0; that for B3, 2.
Same read-out and setting: to B4 belongs 0.
Same read-out and setting: to B5 belongs 2.
As for B6, the “Number of Assigned Spectra, K562 Prep 2” value is 0.
As to B7, the “Number of Assigned Spectra, K562 Prep 2” value is on record as 0.

The next assay has as its system Hsp90 complexes in Mia-PaCa-2 cell extract. Nature of the assay: Nano-LC-MS/MS of PU-beads pull-downs. The class given is binding, human. Particulars: protein identified in PU-beads pull-down of Mia-PaCa-2 cell extract; QSTAR-Elite QTof MS. The gist of the method: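 Lysates pre-cleared overnight at 4 °C with control beads underwent PU-bead pull-down; bound proteins were SDS-eluted, gel-separated, digested and analyzed by nano-LC-MS/MS on a QTof. Identifications used significance p<0.05, 0.4 Da tolerances and one missed cleavage; unique peptide (spectral) counts and sequence coverage were reported.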
With B1, the “Number of Assigned Spectra, Mia-Paca 2” value is on record as 0.
For B2, the “Number of Assigned Spectra, Mia-Paca 2” value amounted to 7.
Same read-out and setting: to B3 belongs 0.
Still for that read-out and setting: the result for B4 reads 0; that for B5, 0; that for B6, 5.
On the same count and under the same terms, to B7 belongs 0.

The record behind these values is patent US20220074941A1, “HSP90 COMBINATION THERAPY” (Sloan-Kettering Institute for Cancer Research, priority 2011, published 2022).
